Measured values taken from patent US20220363763A1 (ABL BIO, published 2022).
Substitutions are numbered along the chain they refer to.

Key:
[1] = molecular target: T1, human LAG3-His protein (Sinobio, 16498-H08H) (human, UniProt P18627 23-450); test: ELISA on coated LAG3-His
T1 construct: also called human LAG3 protein; not shown: His tag
T1 sequence (looked up): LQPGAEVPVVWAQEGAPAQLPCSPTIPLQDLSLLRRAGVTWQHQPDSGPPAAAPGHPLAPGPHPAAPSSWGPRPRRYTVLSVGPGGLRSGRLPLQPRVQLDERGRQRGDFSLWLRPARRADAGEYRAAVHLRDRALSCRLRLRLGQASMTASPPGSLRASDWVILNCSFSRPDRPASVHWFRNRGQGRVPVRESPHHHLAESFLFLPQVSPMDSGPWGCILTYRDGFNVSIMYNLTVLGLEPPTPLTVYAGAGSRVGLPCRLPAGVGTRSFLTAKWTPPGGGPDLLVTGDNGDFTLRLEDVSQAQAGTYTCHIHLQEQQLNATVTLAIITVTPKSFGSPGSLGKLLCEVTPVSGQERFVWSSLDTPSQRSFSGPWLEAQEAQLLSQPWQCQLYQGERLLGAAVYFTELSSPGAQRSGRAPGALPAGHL
Text: To evaluate the binding activity to PD-L1 and LAG3 of the bispecific antibodies (BsAb; H12x147 and 147xH12) prepared in Example 3, the BsAb were subjected to ELISA test.

human PD-L1-Fc protein = molecular target: T2, human PD-L1-Fc protein (human, UniProt Q9NZQ7 19-239); test: ELISA on coated PD-L1-Fc
T2 construct: Coated on ELISA plates; also called huPD-L1; not shown: Fc part

[2] = molecular target: T3, human LAG3 (construct not stated) (human, UniProt P18627 23-450, limits assumed); test: BLI Octet Red 96, affinity ranking
T3 construct: also called human LAG3 protein; antigen
T3 sequence (looked up): T1 sequence (looked up)

human LAG3 on cells [3] = molecular target: T4, human LAG3 on cells (human, UniProt P18627 23-525); test: flow cytometry on activated CD4 T cells
T4 construct: whole, on cells; also called Jurkat-LAG3
T4 sequence (looked up): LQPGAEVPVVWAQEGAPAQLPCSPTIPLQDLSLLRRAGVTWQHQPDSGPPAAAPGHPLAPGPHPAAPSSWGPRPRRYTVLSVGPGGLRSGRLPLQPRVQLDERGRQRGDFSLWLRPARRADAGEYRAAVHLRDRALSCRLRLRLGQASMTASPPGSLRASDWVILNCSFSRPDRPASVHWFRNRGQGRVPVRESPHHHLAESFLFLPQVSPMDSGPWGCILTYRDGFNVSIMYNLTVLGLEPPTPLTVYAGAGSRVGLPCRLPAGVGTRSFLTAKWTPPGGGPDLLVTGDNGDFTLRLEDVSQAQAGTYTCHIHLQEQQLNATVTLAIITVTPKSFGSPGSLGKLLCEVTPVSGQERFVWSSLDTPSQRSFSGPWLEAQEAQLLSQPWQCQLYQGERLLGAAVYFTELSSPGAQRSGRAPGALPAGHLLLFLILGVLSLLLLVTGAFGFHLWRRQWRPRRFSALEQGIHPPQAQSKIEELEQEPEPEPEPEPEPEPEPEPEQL
Protocol: (§1) To further confirm affinity matured anti-LAG-3 antibodies could bind to cell-derived human LAG3, both inducible hLAG3 expressed Jurkat cells and activated PBMCs were used to test the binding capability of B3807b and B3810. In brief, Jurkat cells were resuspended in FACS buffer. Anti-LAG3 antibodies and isotype control were 4-fold serially diluted in FACS buffer with a dose ranging from 20 nM to 30 pM. The serially diluted antibodies were added to the cell suspension and incubated for 30 minutes on ice. Then after removal of unbound antibodies, cells were stained with anti-human IgG conjugated with Alexa Fluor 633 (Thermo, A21091). Fluorescence measurement was acquired on FACSCelesta flow cytometer and analyzed in Flowjo to determine the mean fluorescence intensities (MFI). To test anti-LAG3 antibodies' ability of binding to native human LAG3, PBMCs from health donor were stimulated with anti-CD3 (BD, 555336) and anti-CD28 (BD, 555725) both at a concentration of 1 ug/ml. Following 3 days' stimulation, cells were harvested and incubated with anti-LAG3 antibodies for 30 mins on ice. The cells were stained with anti-human CD4 and anti-human IgG. Analysis of antibodies binding to CD4+ cells were carried out on FACSCelesta flow cytometry. […] FIG. 31 is a graph showing the binding curve of anti-LAG3 antibodies.

[4] = molecular target: T5, recombinant human LAG-3-ECD-human IgG1 fusion protein (human, UniProt P18627 23-450, biotin-labeled in the MHC class II blocking assays); test: ELISA as Example 2.2, coated human LAG3 ECD-Fc
T5 construct: extracellular domain; also called LAG-3-huFc; LAG-3-ECD-huFc; not shown: human IgG1 Fc
T5 sequence (looked up): T1 sequence (looked up)
Protocol: To evaluate the capability of the anti-LAG-3 antibodies to bind to human, rat, and mouse LAG3 the antibodies identified in Example 2.1 were evaluated for their binding property through ELISA. The human, rat and mouse LAG3 ECD-Fc protein were coated to ELISA plate at 1 μg/ml with 100 μl/well. Antibodies from Example 1 were serially diluted with ELISA diluent buffer. […] The resulting plates were washed and then labeled with anti-human IgG(Fab)-HRP antibody. The S31 can only bind to human LAG3. The S27 and T99 can bind to human LAG3 and rat/mouse LAG3 with lower potency. The S119 antibody can bind to human, rat and mouse LAG3 at high potency (FIGS. 22A-22D).

[5] = molecular target: T6, recombinant his-tag human LAG3-ECD protein (human, UniProt P18627 23-450); test: SPR Biacore T200, capture method as Example 2.7
T6 construct: extracellular domain; not shown: his tag
T6 sequence (looked up): T1 sequence (looked up)

human LAG3 on cells [6] = molecular target: T4, human LAG3 on cells; test: flow cytometry on hLAG3-expressing Jurkat cells
Protocol: as §1

[7] = molecular target: T3, human LAG3 (construct not stated); test: BLI Octet Red 96, full kinetics, antigen 50-3.125 nM
Protocol: The binding affinity was calculated by software in Octet® RED96 System.

human LAG3 on cells [8] = molecular target: T4, human LAG3 on cells; test: flow cytometry (MFI) on Jurkat-LAG3 cells, upper panel; EC50 table has no unit, x axis Concentration (nM); Table 31 of the text prints the rounded 1.2
Protocol: as §1

human LAG3 on cells [9] = molecular target: T4, human LAG3 on cells; test: flow cytometry (MFI) on activated CD4 T cells, lower panel; EC50 table has no unit, x axis Concentration (nM); Table 31 of the text prints the rounded 0.77
Protocol: as §1

Bio-LAG3 = molecular target: T7, Bio-LAG3 (human, UniProt P18627 23-450, limits assumed, biotinylated (sites not given)); test: ELISA, Bio-LAG3 held on streptavidin-coated plate
T7 construct: also called human LAG3 protein
T7 sequence (looked up): T1 sequence (looked up)
Protocol: The streptavidin was coated to an ELISA plate at 2 μg/ml with 100 μl/well. 100 μl of Bio-LAG3 at 1.0 μg/ml was subsequently incubated with streptavidin at RT for 1 hr. B3807, along with a positive control 25F7 and a negative control IgG, were serially diluted with ELISA diluent buffer. To assess binding, the antibodies at various concentrations were added to LAG3 protein-coated plate for 1.5 hr RT. The resulting plates were washed and then labeled with anti-human IgG(Fab)-HRP antibody.

[10] = molecular target: T3, human LAG3 (construct not stated); test: TR-FRET LAG3 / MHC II binding assay (Cisbio), competitor MHC II
Protocol: To measure the ability of B3807 to block the interaction between human LAG3 and MHCII, the LAG3 and MHC II binding assay (Cisbio, 64ICP03PEG) was performed utilizing homogeneous TR-FRET technology, following the protocol provided by the kit manufacturer. B3807 was 3-fold diluted ranging from 100 nM to 5 pM (10 points). Fluorescence data was acquired on a PerkinElmer Envision plate reader and a four-parameter dose-response curve was fitted to obtain IC50 of each antibody.

human LAG3 on cells [11] = molecular target: T4, human LAG3 on cells; test: flow cytometry (MFI) on activated human PBMC (CD4+ cells), lower panel
Protocol: (§2) To further confirm that B3807 could bind to cell-derived human LAG3, both inducible human LAG3 expressed Jurkat cells and activated PBMCs were used to test the binding capability of B3807. In brief, Jurkat cells were resuspended in FACS buffer. B3807, 25F7 and isotype control were 3-fold serially diluted in FACS buffer with a dose ranging from 20 nM to 9 pM. The serially diluted antibodies were added to the cell suspension and incubated for 30 minutes on ice. Then after removal of unbound antibodies, cells were stained with anti-human IgG conjugated with Alexa Fluor 633 (Thermo, A21091). Fluorescence measurement was acquired on FACSCelesta flow cytometer and analyzed in Flowjo to determine the mean fluorescence intensities (MFI). To test the antibodies' ability of binding to native human LAG3, PBMCs from health donor were stimulated with anti-CD3 (BD, 555336) and anti-CD28 (BD, 555725) both at a concentration of 1 μg/ml. Following 3 days' stimulation, cells were harvested and incubated with anti-LAG3 antibodies for 30 mins on ice. The cells were stained with anti-human CD4 and anti-human IgG. Analysis of antibodies binding to CD4+ cells were carried out on FACSCelesta flow cytometry.

human LAG3 on cells [12] = molecular target: T4, human LAG3 on cells; test: flow cytometry (MFI) on human LAG3-expressing Jurkat cells, upper panel
Protocol: as §2

[13] = molecular target: T6, recombinant his-tag human LAG3-ECD …; test: Biacore, antibody captured, His-tag human LAG3-ECD injected (procedure of Example 2.16(B))
Protocol: (§3) The binding of B3807 to recombinant His-tag human LAG3-ECD protein was examined by Biacore T200 using a capture method. B3807 was captured using protein A which was immobilized on CM5 sensor chip. Serial concentrations of his-tag human LAG3-ECD protein (0-12 nM) were injected over capture antibodies at the flow rate of 30 μl/min. The dissociation phase was 900 s or 550 s.
(§4) B3807 was used in the following examples for further testing and preparing bispecific antibodies.

biotin-labeled LAG3-ECD = molecular target: T8, biotin-labeled LAG3-ECD (Homo sapiens (Human), UniProt P18627 23-450, biotin label, site not stated); test: ELISA on coated recombinant FGL-1; blocking of the binding of biotin-labeled LAG3-ECD to FGL-1
T8 construct: also called soluble LAG-3; LAG3 protein
T8 sequence: T1 sequence (looked up)
Protocol: Recombinant FGL-1 were coated on a 96 well plated at a concentration of 1 μg/ml and incubated overnight at 4° C. Serially diluted anti-LAG3 antibody B3807 (starting from 10 μg/ml and 1:3 dilution) and biotin-labeled LAG3-ECD (2 μg/ml) were incubated with FGL-1 coated wells at room temperature for 2 hours. After extensive washing with the wash buffer, streptavidin-HRP was added.

[14] = molecular target: T6, recombinant his-tag human LAG3-ECD …; test: Biacore T200, B3807 captured on protein A, His-tag human LAG3-ECD injected; column 'KD', unit inferred
Protocol: as §3

[15] = molecular target: T6, recombinant his-tag human LAG3-ECD …; test: Biacore, antibody captured, His-tag human LAG3-ECD injected (procedure of Example 2.16(B)); column kd(1/s)
Protocol: as §3, §4

[16] = molecular target: T6, recombinant his-tag human LAG3-ECD …; test: Biacore, antibody captured, His-tag human LAG3-ECD injected (procedure of Example 2.16(B)); column ka (1/Ms)
Protocol: as §3, §4

T2 sequence (Q9NZQ7 19-239 limits assumed): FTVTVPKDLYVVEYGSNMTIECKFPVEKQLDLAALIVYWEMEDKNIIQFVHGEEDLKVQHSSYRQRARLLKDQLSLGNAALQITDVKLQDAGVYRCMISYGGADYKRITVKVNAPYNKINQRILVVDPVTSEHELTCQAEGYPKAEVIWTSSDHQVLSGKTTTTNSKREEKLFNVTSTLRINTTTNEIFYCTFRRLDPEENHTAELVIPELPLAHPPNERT

B1: H12x147 (bispecific antibody, human IgG1, kappa, N297A)
heavy: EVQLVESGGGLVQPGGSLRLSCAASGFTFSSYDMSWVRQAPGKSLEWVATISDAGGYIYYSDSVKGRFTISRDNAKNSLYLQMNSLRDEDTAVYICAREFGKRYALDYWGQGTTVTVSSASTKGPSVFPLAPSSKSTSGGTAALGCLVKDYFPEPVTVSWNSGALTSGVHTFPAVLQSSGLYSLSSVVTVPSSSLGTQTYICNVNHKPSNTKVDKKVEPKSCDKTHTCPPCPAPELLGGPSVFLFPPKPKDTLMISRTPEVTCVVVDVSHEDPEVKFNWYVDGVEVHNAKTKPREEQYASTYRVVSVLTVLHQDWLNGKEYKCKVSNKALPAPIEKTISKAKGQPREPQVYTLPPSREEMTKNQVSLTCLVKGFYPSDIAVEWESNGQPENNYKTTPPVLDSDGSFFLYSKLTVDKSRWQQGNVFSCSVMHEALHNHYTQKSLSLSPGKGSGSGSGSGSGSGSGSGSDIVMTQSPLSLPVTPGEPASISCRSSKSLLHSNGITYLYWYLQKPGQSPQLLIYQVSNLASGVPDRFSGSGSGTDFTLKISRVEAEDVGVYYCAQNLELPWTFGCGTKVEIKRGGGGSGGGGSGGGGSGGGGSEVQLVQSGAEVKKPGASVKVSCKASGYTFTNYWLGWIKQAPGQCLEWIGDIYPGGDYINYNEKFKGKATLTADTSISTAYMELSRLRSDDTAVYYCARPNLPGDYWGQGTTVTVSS
light: DIQMTQSPSSLSASVGDRVTITCKASQDVTPAVAWYQQKPGKAPKLLIYSTSSRYTGVPSRFSGSGSGTDFTFTISSLQPEDIATYYCQQHYTTPLTFGQGTKLEIKRTVAAPSVFIFPPSDEQLKSGTASVVCLLNNFYPREAKVQWKVDNALQSGNSQESVTEQDSKDSTYSLSSTLTLSKADYEKHKVYACEVTHQGLSSPVTKSFNRGEC
notes: also called L1A3
binding result [1]: binds
binding result (human PD-L1-Fc protein): binds

B2: 147H-13 (antibody, V domains shown)
VH: EVQLVQSGAEVKKPGASVKVSCKASGYTFTNYWLGWIKQAPGQGLEWIGDIYPGGDYINYNEKFKGKATLTADTSISTAYMELSRLRSDDTAVYYCARPNLPGDYWGQGTTVTVSS
VL: DIVMTQSPLSLPVTPGEPASISCRSSKSLLHSNGITYLYWYLQKPGQSPQLLIYQVSNLASGVPDRFSGSGSGTDFTLKISRVEAEDVGVYYCAQNLELPWTFGGGTKVEIK
notes: Common light chain; human gamma 1 / kappa constant domains; also called 147H4-13
Kd [2]: 21600 pM
koff [2]: 0.00234 s⁻¹
kon [2]: 108000 M⁻¹ s⁻¹
EC50 (human LAG3 on cells [3]): 770 pM
EC50 [4]: 6500 pM
Kd [5]: 14000 pM
koff [5]: 0.03 s⁻¹
kon [5]: 2.2e+06 M⁻¹ s⁻¹
EC50 (human LAG3 on cells [6]): 1200 pM
Kd [7]: 18200 pM
koff [7]: 0.0019 s⁻¹
kon [7]: 104000 M⁻¹ s⁻¹
EC50 (human LAG3 on cells [8]): 1220 pM
EC50 (human LAG3 on cells [9]): 767 pM

B3: 147H 3807 (antibody, V domains shown)
VH: B2 VH with N59V, G103K, Y105H
VL: B2 VL with N33Q, N96Y
notes: also called B3807
EC50 (Bio-LAG3): 60 pM
IC50 [10]: 410 pM
EC50 (human LAG3 on cells [11]): 320 pM
EC50 (human LAG3 on cells [12]): 60 pM
Kd [13]: 915 pM
IC50 (read off the curve) (biotin-labeled LAG3-ECD): ~0.2 µg/mL
Kd [14]: 464 pM
koff [15]: 0.00517 s⁻¹
kon [16]: 5.66e+06 M⁻¹ s⁻¹
